Data reported in the DeepSol protein solubility set.

Assay: soluble on expression in E. coli; label from the status in PepcDB or PDB records

Sequence | soluble on expression in E. coli
MGSDKIHHHHHHMKHYALLISFLALSACSQGSEDLNEWMAQTRREAKAEIIPFQAPTLPVAPVYSPPQLTGPNAFDFRRMETDKKGENAPDTKRIKETLEKFSLENMRYVGILKSGQKVSGFIEAEGYVYTVGVGNYLGQNYGRIESITDDSIVLNELIEDSTGNWVSRKAELLLNSSDKNTEQAAAPAAEQN | not soluble
MGLRPVSYTDSSVTPSVDGSIVLTAASVQSMPDSEESRLYGDDATYLAEGGRRQCPYTSNGPTFMETASFKKKRSKSADIWREDSLEFSLSDLSQEHLTSNEEILGSAEEKDCEEARGMETEASPRQLSTCQRANSLGDLYAQKNSGVKANGGPRNRFSSYCRNLVSDIPDLAKHKMPPAAAEETPPYSNYNTLPCRKSHCLSEGATNPQISLSKSMQGRRAKTTQDVNTGEGSEFADSGIEGATTDTDLLSRRSNATNSSYSPPTGRAFVGSDSGSSSTGDAARQGVYENFRRELEMSTTNSESLEEAGSAHSDEQSSGTLSSPGQSDILLTAAQGTVRKAGALAVKNFLVHKKNKKVESATRRKWKHYWVSLKGCTLFFYETDGRSGIDHNSVPKHAVWVENSIVQAVPEHPKKDFVFCLSNSLGDAFLFQTTSQTELENWITAIHSACAAAVARHHHKEDTLRLLKSEIKKLEQKIDMDEKMKKMGEMQLSSVTDSKKKKTILDQIFVWEQNLEQFQMDLFRFRCYLASLQGGELPNPKRLLAFASRPTKVAMGRLGIFSVSSFHALVAARTGEIGVRRRTQAMSRSASKRRSRFSSLWGLDTTSKKKQGRPTINQVFGEGTDAVKRSLEGIFDDTVPDGKREKEVVLPSVHQHNPDCDIWVHEYFTPSWFCLPNNQPALTVVRPGDTARDTLELICKTHQLDHSAHYLRLKFLMENRVQFYIPQPEEDIYELLYKEIEICPKVTQNIHIEKSDAAADNYGFLLSSVDEDGIRRLYVNSVKETGLASKKGLKAGDEILEINNRAAGTLNSSMLKDFLSQPSLGLLVRTYPEPEGGVELLENPPHRVDGPVDLGESPLAFLTSNPGHSLSSEQGSSAETAPEEGEGPDLESSDETDHSSKSTEQVAAFCRSLHEMSPSDSSPSPQDATSPQLATTRQLSDADKLRKVICELLETERTYVKDLNCLMERYLKPLQKETFLTQDELDVLFGNLTEMVEFQVEFLKTLEDGVRLVPDLEKLEKVDQFKKVLFSLGGSFLYYADRFKLYSAFCASHTKVPKVLVKAKTDTAFKAFLDAQNPRQQHSSTLESYLIKPIQRVLKYPLLLRELFALTDAESEEHYHLDVAIKTMNKVASHINEMQKIHEEFGAVFDQLIAEQTGEKKEVADLSMGDLLLHTSVIWLNPPASLGKWKKEPELAAFVFKTAVVLVYKDGSKQKKKLVGSHRLSIYEEWDPFRFRHMIPTEALQVRALPSADAEANAVCEIVHVKSESEGRPERVFHLCCSSPESRKDFLKSVHSILRDKHRRQLLKTESLPSAQQYVPFGGKRLCALKGARPAMSRAVSAPSKSLGRRRRRLARNRFTIDSDAISASSPEKEPQQPAGGGDTDRWVEEQFDLAQYEEQDDIKETDILSDDDEFCESLKGASVDRDLQEQLQAASISQRARGRRTLDSHASRMTQLKKQAALSGINGGLESASEEVIWVRREDFAPSRKLNTEI | soluble
MARSRGSSRPISRSRPTQTRSASTMAAPVHPQQQQQPNAYSHPPAAGAQTRQPGMFAQMASTAAGVAVGSTIGHTLGAGITGMFSGSGSDSAPVEQQQQNMANTSGQTQTDQQLGRTCEIDARNFTRCLDENNGNFQICDYYLQQLKACQEAARQY | soluble
MPVILNFSSERVLSESELEALRHVGRVSQSEQLVVRGRTMRLHHISFMDSFSVEPVSGGLLDRLSARGHRLLAENLEIQLNRGHTFLQAFRLYMEQSRATPCTRQNVSSAIQNKINSHAFTVSHQDFSCHEQHLNCPITLCIPETGVFVRNAKNSEICSLYDHNALTELIRRNAPHPLSREPFVPEMIVSKDECHFNLIEQYFCILATQNICTRI | not soluble
GGTSNEVAQFLSKENQVIVRMRGLPFTATAEEVVAFFGQHCPITGGKEGILFVTYPDGRPTGDAFVLFACEEYAQNALRKHKDLLGKRYIELFRSTAAEVQQVLNRFSSA | soluble
MGHHHHHHSHMEGTQETYTVAHEENVRFVSEAWQQVQQQLDGGPAGEGGPRPVQYVERTPNPRLQNFVPIDLDEWWGAAVPGENHQLFLVAAGRGRCYTADLSPGEKHGALPTHCAWLGAGHT | not soluble
MMNTNTTNNTVLLFTFNNIQGRGLQTAIEQNLEKPVLLTQGADVNLPSTRDEHYVAIVDSSLPELPEVKQTLSELEHVDATVLVNAEPNLRIESLLTWSNLKGLFYFEDDFDKVMMGLKGILNGENWLSRDILN | not soluble
MGSDKIHHHHHHMASHNTTHQMKTLCSSCSLRELCLPVGLLPNELSQLDAVIRQSRRLKKGEYLFCVGEAFTSLFAIRSGFFKTTVASQDGRDQVTGFFMSGELIGMDGICSHVHSCDAVALEDSEVCELPFTHIEELGQNIPSLRTHFFRMMSREIVRDQGVMLLLGNMRAEERIAAFLLNLSQRLYSRGFAANDFILRMSREEIGSYLGLKLETVSRTLSKFHQEGLISVEHKHIKILNLQVLKKMVSGCSHAI | not soluble
KFLHEISLVLQTSVDLDEVLSVVMTAITAGKGFGMNRAFLLLTDKERKHLRGYLGVGPRNYGEAWFIWDEISRDDFTLKEMAKNFYQTKFTSEKQKFHDILENLTIPLSEHDHILVRALREKKPLLVENAFHNPDCDYSLTQTLGVDTFLITPLVSRNRRIGVIISDNCVTHKPITPQDVQSLETFAFPVAFAIERASLYERLQEE | not soluble
MKEHIAAVHKQTIAQAAERLFLERGFDGTSISDICAASGYSRRTVYRYFDTKEEILYYIVANGLEQLRDRLTDIVQAEQPFLAKYEHICKAMRAYYEHCPISARAVHQFQPKALETVTPTMETIFSLGTAINDALARWIEQGIAEGVVRETADVMMTVYVFSAQLHALFDLVETKGAFLLPTLGKTKEQFFAYGQKMIFNSLAKEPLL | soluble
MSQPAYRLFNVELKRREQLSPALTRFVFGGPEVAEMKTLAADQRIKIFFPDASGQPPSLPGGSEWYQAYRSVEPARRPPMRTYTIRALRAEQEEVDVEFVLHGENGPASAWATHARIGDRLQLAAPNRQYGDDPGGYEWKPPAGVRHILLIADETALPAVAGILEELAGETEPPVVEAFLEVPGEADILDLPAIPAARLHWLPRHQAGIHSRNGERMIEAARQARLPEREVAGGAAQELEDIDIDEEILWELASPESGSFYAWVAGESAAVMAIRRYLVQERGIDKRHLTLMGYWRLGKVFD | not soluble
GLLMEGDEPAGGKWNFDTENRKPAAPDLLRPRPLRFEPDAEVRAVLDLVEARFPRHFGRLRPFHWATDRAEALRALDHFIRESLPRFGDEQDAMLADDPFLSHALLSSSMNLGLLGPMEVCRRAETEWREGRAPLNAVEGFIRQILGWREYVRGIWTLSGPDYI | not soluble
MLGAIIGDIVGSVYEWNNIKTKDFPLFRKDCFFTDDTVMTCAVAEAIMNGGQKDDFIDAMKKYGRMYPNADYGARFNAWLNSDNREPYNSFGNGSAMRISPCAWIMDCGFYAKTGIWPSSRGLTSLSAEVTHNHPEGVKGAMATADAIFLCRFYFGGYCREYEQSINDNPTECKRRIKDYIEKEYDYNLSQTLDEIRPNYRFNETCQETVPQAIIAFLESRDFEDAIRNAISLGGDSDTLAAITCSIAEAAYGIPDWIKDKAYSYLDEPLKDVVRRWENRIKAY | not soluble
